Data set [1] addresses T1, Methanothermobacter thermautotrophicus glutamyl-tRNA(Gln) amidotransferase GatDE, His6-tagged (Methanothermobacter thermautotrophicus), O26802.
T1 chain 1: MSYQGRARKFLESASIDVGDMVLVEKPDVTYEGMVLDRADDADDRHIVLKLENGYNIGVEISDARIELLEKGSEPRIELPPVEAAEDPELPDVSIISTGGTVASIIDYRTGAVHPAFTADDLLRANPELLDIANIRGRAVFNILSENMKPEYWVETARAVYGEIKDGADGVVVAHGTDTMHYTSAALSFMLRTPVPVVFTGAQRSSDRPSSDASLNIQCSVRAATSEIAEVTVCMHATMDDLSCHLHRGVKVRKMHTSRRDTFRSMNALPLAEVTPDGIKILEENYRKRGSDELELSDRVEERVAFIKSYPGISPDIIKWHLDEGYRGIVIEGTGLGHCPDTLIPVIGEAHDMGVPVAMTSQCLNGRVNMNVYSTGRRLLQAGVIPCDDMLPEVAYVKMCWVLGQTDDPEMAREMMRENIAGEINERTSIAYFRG
T1 chain 2: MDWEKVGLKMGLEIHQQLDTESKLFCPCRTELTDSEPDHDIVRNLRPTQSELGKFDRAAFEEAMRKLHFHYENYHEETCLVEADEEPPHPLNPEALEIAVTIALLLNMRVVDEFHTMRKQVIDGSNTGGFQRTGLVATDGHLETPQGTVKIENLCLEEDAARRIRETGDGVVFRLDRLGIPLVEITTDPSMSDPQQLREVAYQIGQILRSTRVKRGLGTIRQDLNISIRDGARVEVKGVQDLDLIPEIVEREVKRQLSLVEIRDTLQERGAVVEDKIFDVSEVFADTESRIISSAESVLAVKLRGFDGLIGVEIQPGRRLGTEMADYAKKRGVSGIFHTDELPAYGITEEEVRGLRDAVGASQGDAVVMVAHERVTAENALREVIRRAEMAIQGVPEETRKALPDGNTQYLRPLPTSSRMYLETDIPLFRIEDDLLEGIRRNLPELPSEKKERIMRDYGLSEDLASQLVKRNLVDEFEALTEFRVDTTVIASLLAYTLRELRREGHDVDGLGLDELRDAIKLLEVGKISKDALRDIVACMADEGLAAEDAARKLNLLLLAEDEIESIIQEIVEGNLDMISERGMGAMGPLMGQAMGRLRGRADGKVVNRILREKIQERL
As to the kind of experiment: SEC. The note with it: remark: other sources report otherwise.

Data set [2] has as its target T2, Methanothermobacter thermautotrophicus non-discriminating glutamyl-tRNA synthetase (Methanothermobacter thermautotrophicus), O26157.
T2 chain: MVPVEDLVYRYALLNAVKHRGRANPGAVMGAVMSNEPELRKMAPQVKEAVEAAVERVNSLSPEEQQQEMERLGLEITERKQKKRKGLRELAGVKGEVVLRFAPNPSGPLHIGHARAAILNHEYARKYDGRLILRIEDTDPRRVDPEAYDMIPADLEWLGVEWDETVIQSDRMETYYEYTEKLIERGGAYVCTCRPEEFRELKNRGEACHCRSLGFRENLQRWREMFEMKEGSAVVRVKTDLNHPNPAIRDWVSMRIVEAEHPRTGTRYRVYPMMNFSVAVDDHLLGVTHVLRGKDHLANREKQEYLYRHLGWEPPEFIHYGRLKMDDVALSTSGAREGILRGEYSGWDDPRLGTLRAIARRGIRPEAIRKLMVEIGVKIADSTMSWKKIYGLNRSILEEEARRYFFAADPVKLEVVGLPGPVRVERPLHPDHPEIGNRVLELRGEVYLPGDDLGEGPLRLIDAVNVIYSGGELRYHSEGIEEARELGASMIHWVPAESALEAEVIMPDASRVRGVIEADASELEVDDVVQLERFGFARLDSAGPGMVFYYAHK
As to the kind of experiment: nitrocellulose filter-binding competition. The following applies: remark: other sources report otherwise.

The target in data set [3] is T3, Alexa fluor 488-labeled M. thermautotrophicus ND-GluRS (Methanothermobacter thermautotrophicus), O26157.
T3 chain: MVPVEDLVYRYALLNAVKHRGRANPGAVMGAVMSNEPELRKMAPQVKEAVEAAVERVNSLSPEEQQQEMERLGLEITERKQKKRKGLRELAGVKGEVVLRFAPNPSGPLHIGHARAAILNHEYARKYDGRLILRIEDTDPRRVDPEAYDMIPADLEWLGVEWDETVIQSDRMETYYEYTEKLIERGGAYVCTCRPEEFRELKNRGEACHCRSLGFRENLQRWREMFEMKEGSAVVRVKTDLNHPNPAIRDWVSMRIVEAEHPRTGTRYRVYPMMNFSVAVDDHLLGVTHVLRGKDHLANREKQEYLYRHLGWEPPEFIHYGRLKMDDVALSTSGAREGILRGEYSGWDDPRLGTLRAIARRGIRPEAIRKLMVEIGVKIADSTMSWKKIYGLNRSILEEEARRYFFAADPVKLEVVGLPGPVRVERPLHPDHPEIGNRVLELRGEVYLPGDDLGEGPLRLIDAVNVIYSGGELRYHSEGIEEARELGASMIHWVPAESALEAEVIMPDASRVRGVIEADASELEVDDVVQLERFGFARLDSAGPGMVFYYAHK
As to the kind of experiment: fluorescence polarisation. The note with it: remark: other sources report otherwise.

The data set “SEC” deals with the molecule itself. The experiment in a line: SEC. On the technique in general: Size exclusion chromatography separates by hydrodynamic size, large species first.

B1: Methanothermobacter thermautotrophicus non-discriminating glutamyl-tRNA synthetase, O26157 1-553 (enzyme)
chain: MVPVEDLVYRYALLNAVKHRGRANPGAVMGAVMSNEPELRKMAPQVKEAVEAAVERVNSLSPEEQQQEMERLGLEITERKQKKRKGLRELAGVKGEVVLRFAPNPSGPLHIGHARAAILNHEYARKYDGRLILRIEDTDPRRVDPEAYDMIPADLEWLGVEWDETVIQSDRMETYYEYTEKLIERGGAYVCTCRPEEFRELKNRGEACHCRSLGFRENLQRWREMFEMKEGSAVVRVKTDLNHPNPAIRDWVSMRIVEAEHPRTGTRYRVYPMMNFSVAVDDHLLGVTHVLRGKDHLANREKQEYLYRHLGWEPPEFIHYGRLKMDDVALSTSGAREGILRGEYSGWDDPRLGTLRAIARRGIRPEAIRKLMVEIGVKIADSTMSWKKIYGLNRSILEEEARRYFFAADPVKLEVVGLPGPVRVERPLHPDHPEIGNRVLELRGEVYLPGDDLGEGPLRLIDAVNVIYSGGELRYHSEGIEEARELGASMIHWVPAESALEAEVIMPDASRVRGVIEADASELEVDDVVQLERFGFARLDSAGPGMVFYYAHK
The molecule B1 returned a stoichiometry N (ND-GluRS monomers per GatDE homodimer) in data set [1] of 2.

B2: Methanothermobacter thermautotrophicus glutamyl-tRNA(Gln) amidotransferase GatDE, His6-tagged, O26802 1-435; O26803 1-619 (complex)
chain 1: MSYQGRARKFLESASIDVGDMVLVEKPDVTYEGMVLDRADDADDRHIVLKLENGYNIGVEISDARIELLEKGSEPRIELPPVEAAEDPELPDVSIISTGGTVASIIDYRTGAVHPAFTADDLLRANPELLDIANIRGRAVFNILSENMKPEYWVETARAVYGEIKDGADGVVVAHGTDTMHYTSAALSFMLRTPVPVVFTGAQRSSDRPSSDASLNIQCSVRAATSEIAEVTVCMHATMDDLSCHLHRGVKVRKMHTSRRDTFRSMNALPLAEVTPDGIKILEENYRKRGSDELELSDRVEERVAFIKSYPGISPDIIKWHLDEGYRGIVIEGTGLGHCPDTLIPVIGEAHDMGVPVAMTSQCLNGRVNMNVYSTGRRLLQAGVIPCDDMLPEVAYVKMCWVLGQTDDPEMAREMMRENIAGEINERTSIAYFRG
chain 2: MDWEKVGLKMGLEIHQQLDTESKLFCPCRTELTDSEPDHDIVRNLRPTQSELGKFDRAAFEEAMRKLHFHYENYHEETCLVEADEEPPHPLNPEALEIAVTIALLLNMRVVDEFHTMRKQVIDGSNTGGFQRTGLVATDGHLETPQGTVKIENLCLEEDAARRIRETGDGVVFRLDRLGIPLVEITTDPSMSDPQQLREVAYQIGQILRSTRVKRGLGTIRQDLNISIRDGARVEVKGVQDLDLIPEIVEREVKRQLSLVEIRDTLQERGAVVEDKIFDVSEVFADTESRIISSAESVLAVKLRGFDGLIGVEIQPGRRLGTEMADYAKKRGVSGIFHTDELPAYGITEEEVRGLRDAVGASQGDAVVMVAHERVTAENALREVIRRAEMAIQGVPEETRKALPDGNTQYLRPLPTSSRMYLETDIPLFRIEDDLLEGIRRNLPELPSEKKERIMRDYGLSEDLASQLVKRNLVDEFEALTEFRVDTTVIASLLAYTLRELRREGHDVDGLGLDELRDAIKLLEVGKISKDALRDIVACMADEGLAAEDAARKLNLLLLAEDEIESIIQEIVEGNLDMISERGMGAMGPLMGQAMGRLRGRADGKVVNRILREKIQERL
The molecule B2 displayed a Ki in data set [2] of 33 nM. In addition, the dissociation constant Kd in data set [3] was determined as 100 nM.

B3: Methanothermobacter thermautotrophicus glutamyl-tRNA(Gln) amidotransferase GatDE, His6-tagged (complex)
chain 1: MSYQGRARKFLESASIDVGDMVLVEKPDVTYEGMVLDRADDADDRHIVLKLENGYNIGVEISDARIELLEKGSEPRIELPPVEAAEDPELPDVSIISTGGTVASIIDYRTGAVHPAFTADDLLRANPELLDIANIRGRAVFNILSENMKPEYWVETARAVYGEIKDGADGVVVAHGTDTMHYTSAALSFMLRTPVPVVFTGAQRSSDRPSSDASLNIQCSVRAATSEIAEVTVCMHATMDDLSCHLHRGVKVRKMHTSRRDTFRSMNALPLAEVTPDGIKILEENYRKRGSDELELSDRVEERVAFIKSYPGISPDIIKWHLDEGYRGIVIEGTGLGHCPDTLIPVIGEAHDMGVPVAMTSQCLNGRVNMNVYSTGRRLLQAGVIPCDDMLPEVAYVKMCWVLGQTDDPEMAREMMRENIAGEINERTSIAYFRG
chain 2: MDWEKVGLKMGLEIHQQLDTESKLFCPCRTELTDSEPDHDIVRNLRPTQSELGKFDRAAFEEAMRKLHFHYENYHEETCLVEADEEPPHPLNPEALEIAVTIALLLNMRVVDEFHTMRKQVIDGSNTGGFQRTGLVATDGHLETPQGTVKIENLCLEEDAARRIRETGDGVVFRLDRLGIPLVEITTDPSMSDPQQLREVAYQIGQILRSTRVKRGLGTIRQDLNISIRDGARVEVKGVQDLDLIPEIVEREVKRQLSLVEIRDTLQERGAVVEDKIFDVSEVFADTESRIISSAESVLAVKLRGFDGLIGVEIQPGRRLGTEMADYAKKRGVSGIFHTDELPAYGITEEEVRGLRDAVGASQGDAVVMVAHERVTAENALREVIRRAEMAIQGVPEETRKALPDGNTQYLRPLPTSSRMYLETDIPLFRIEDDLLEGIRRNLPELPSEKKERIMRDYGLSEDLASQLVKRNLVDEFEALTEFRVDTTVIASLLAYTLRELRREGHDVDGLGLDELRDAIKLLEVGKISKDALRDIVACMADEGLAAEDAARKLNLLLLAEDEIESIIQEIVEGNLDMISERGMGAMGPLMGQAMGRLRGRADGKVVNRILREKIQERL
For the molecule B3, the “stoichiometry N” value in “SEC” came to 2.

As usually defined, the Ki is the equilibrium dissociation constant of an inhibitor or competing ligand from its target. One may read the Kd as the concentration at which binding is half-saturated. Read a low Kd as tighter binding. For orientation: stoichiometry N means the number of molecules, sites or subunits per partner or assembly.

Source of the values: paper PMC2943598 (Nucleic Acids Research, 2010).
